The values that follow come from article PMC5698441, “Molecular basis of AKAP79 regulation by calmodulin” (Nature Communications, 2017).

One assay has as its target calcineurin, WT (UniProt Q08209).
A further assay concerns the target calcineurin I396A/I400A (UniProt Q08209).

As to “human CaM, untagged (pET28-a) (from UniProt P0DP23 1-149) (natural protein)”, the half-maximal CaM concentration (KCaM) for activation of phosphatase activity against a phosphorylated RII peptide with calcineurin, WT stood at 30 nM; with calcineurin I396A/I400A it was 670 nM.
